Target: SCCA1 recombinant protein expressed on transfected HepG2 and CHO cells (human) (UniProt P29508)
Assay: virus-to-cell binding assay: transfected cells incubated 20 min with HBV-positive serum and washed, cell-associated HBV-DNA measured by hybrid capture

Chain of UniProt P29508 (P29508 whole entry T357A): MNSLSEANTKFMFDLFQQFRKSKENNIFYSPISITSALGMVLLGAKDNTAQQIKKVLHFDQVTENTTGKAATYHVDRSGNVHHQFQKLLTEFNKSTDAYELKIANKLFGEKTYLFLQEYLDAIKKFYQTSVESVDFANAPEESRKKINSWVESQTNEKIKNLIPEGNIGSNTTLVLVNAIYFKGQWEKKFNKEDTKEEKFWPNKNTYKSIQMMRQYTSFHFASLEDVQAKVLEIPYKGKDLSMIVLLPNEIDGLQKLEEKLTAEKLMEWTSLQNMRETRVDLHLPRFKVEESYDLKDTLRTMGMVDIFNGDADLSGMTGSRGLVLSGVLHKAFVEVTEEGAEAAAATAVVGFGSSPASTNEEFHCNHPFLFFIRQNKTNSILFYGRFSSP

Q: How did the HBV-DNA value, fold over the control cell lines turn out when “HBV viral particles from HBV-DNA positive serum of patients with acute hepatitis B” was run?
A: The HBV-DNA value, fold over the control cell lines was > 8 .fold.

— patent EP0952217A2
